Changes are numbered by the printed parent chain. Where no end group is shown, it is not given here.
B1: antibody G1 Fab fragment (Fab, V domains shown)
VH: EVQLVESGGGLVQPGGSLRLSCAASGFTFSNYWISWVRQAPGKGLEWVAEIRSESDASATHYAEAVKGRFTISRDNAKNSLYLQMNSLRAEDTAVYYCLAYFDYGLAIQNYWGQGTLVTVSS
VL: EIVLTQSPATLSLSPGERATLSCKASKRVTTYVSWYQQKPGQAPRLLIYGASNRYLGIPARFSGSGSGTDFTLTISSLEPEDFAVYYCSQSYNYPYTFGQGTKLEIK
B2: Human calcitonin (1-32) (peptide)
peptide: CGNLSTCMLGTYTQDFNKFHTFPQTAIGVGAP-NH2
modifications: ends and bridges not checked
B3: human α-CGRP 1-19-COOH (peptide)
peptide: ACDTATCVTHRLAGLLSRS-OH
modifications: ends and bridges not checked
B4: 19-36 CONH2 (peptide)
peptide: SGGVVKNNFVPTNVGSKA-NH2
notes: also called human α-CGRP 19-36, amidated at the C-terminus
B5: Human amylin (1-37) (peptide)
peptide: KCNTATCATQRLANFLVHSSNNFGAILSSTNVGSNTY-NH2
modifications: ends and bridges not checked
B6: human α-CGRP 1-13-COOH (peptide)
peptide: ACDTATCVTHRLA-OH
modifications: ends and bridges not checked
B7: Human adrenomedullin (1-52) (peptide)
peptide: YRQSMNNFQGLRSFGCRFGTCTVQKLAHQIYQFTDKDKDNVAPRSKISPQGY-NH2
modifications: ends and bridges not checked

What was measured:
human α-CGRP 19-36-COOH = human α-CGRP 19-36-COOH (human, Table 4: free C-terminus (COOH); paragraph 375 calls it amidated at the C-terminus); assay: Biacore peptide competition (FIG. 6)
Excerpt: (§1) Y axis represents percentage of binding blocked by the presence of the competing peptide compared with the binding in the absence of the competing peptide.
(§2) All these peptides are amidated at the C-terminus.

human α-CGRP 1-19-COOH = target: B3; assay: Biacore peptide competition (FIG. 6)
Excerpt: as §1, §2

human α-CGRP 1-13-COOH = target: B6; assay: Biacore peptide competition (FIG. 6)
Excerpt: as §1, §2

Human calcitonin (1-32) = target: B2; assay: Biacore peptide competition (FIG. 6)
Excerpt: as §1, §2

Human amylin (1-37) = target: B5; assay: Biacore peptide competition (FIG. 6)
Excerpt: as §1, §2

[1] = target: B7; assay: Biacore peptide competition (FIG. 6)
Excerpt: as §1, §2

human α-CGRP 26-37 = target: T1, human α-CGRP 26-37 (human); assay: Biacore: 50 nM G1 Fab with 10 uM competing peptide in solution, over human α-CGRP on chip
T1 peptide: NFVPTNVGSKAF-NH2
Excerpt: as §1, §2

rat α-CGRP (1-37) = target: T2, rat α-CGRP (1-37) (rat, C-terminal amide; N-terminal biotin when captured on the SA chip); assay: as above
T2 construct: also called rat α (1-37); α-rat
T2 peptide: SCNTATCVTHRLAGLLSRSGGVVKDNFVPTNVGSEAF
Excerpt: as §1, §2

human β-CGRP (1-37) = target: T3, human β-CGRP (1-37) (human, not fully specified; C-terminal amide; N-terminal biotin when captured on the SA chip); assay: as above
T3 construct: also called human β (1-37)
T3 peptide: T2 peptide with S1A, V22M, D25S, E35K
Excerpt: as §1, §2

rat β-CGRP (1-37) = target: T4, rat β-CGRP (1-37) (rat, C-terminal amide; N-terminal biotin when captured on the SA chip); assay: as above
T4 construct: also called rat β (1-37)
T4 peptide: T2 peptide with E35K
Excerpt: as §1, §2

human α-CGRP 8-37 = target: T5, human α-CGRP 8-37 (human, C-terminal amide); assay: as above
T5 peptide: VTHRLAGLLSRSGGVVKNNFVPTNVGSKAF
Excerpt: as §1, §2

[2] = target: T6, human α-CGRP P29A (19-37) (human); assay: as above
T6 peptide: SGGVVKNNFVATNVGSKAF-NH2
Excerpt: as §1, §2

[3] = target: T7, human α-CGRP K35A (19-37) (human, not fully specified); assay: as above
T7 peptide: SGGVVKNNFVPTNVGSAAF-NH2
Excerpt: as §1, §2

[4] = target: T8, human α-CGRP K35E (19-37) (human, not fully specified); assay: as above
T8 peptide: SGGVVKNNFVPTNVGSEAF-NH2
Excerpt: as §1, §2

[5] = target: T9, human α-CGRP K35M (19-37) (human, not fully specified); assay: as above
T9 peptide: SGGVVKNNFVPTNVGSMAF-NH2
Excerpt: as §1, §2

human α-CGRP 1-36-COOH = target: T10, human α-CGRP 1-36-COOH (human, free C-terminus (not amidated)); assay: as above
T10 construct: also called 1-36 (not amidated at the C-terminus)
T10 peptide: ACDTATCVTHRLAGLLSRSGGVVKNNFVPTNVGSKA

antibody G1 Fab fragment = target: B1; assay: Biacore competition: G1 Fab 50 nM pre-incubated 1 h with 10 uM peptide, then over biotinylated human α-CGRP on SA chip
Excerpt: as §1, §2

B1
binding result (human α-CGRP 19-36-COOH): no binding (tested: 10 uM peptide in 50 nM G1 Fab)
binding result (human α-CGRP 1-19-COOH): no binding (tested: 10 uM peptide in 50 nM G1 Fab)
binding result (human α-CGRP 1-13-COOH): no binding (tested: 10 uM peptide in 50 nM G1 Fab)
binding result (Human calcitonin (1-32)): no binding (tested: 10 uM peptide in 50 nM G1 Fab)
binding result (Human amylin (1-37)): no binding (tested: 10 uM peptide in 50 nM G1 Fab)
binding result [1]: no binding (tested: 10 uM peptide in 50 nM G1 Fab)
% of binding blocked by competing peptide (human α-CGRP 26-37): 100%
% of binding blocked by competing peptide (rat α-CGRP (1-37)): 100%
% of binding blocked by competing peptide (human β-CGRP (1-37)): 100%
% of binding blocked by competing peptide (rat β-CGRP (1-37)): 100%
% of binding blocked by competing peptide (human α-CGRP 8-37): 100%
% of binding blocked by competing peptide [2]: 100%
% of binding blocked by competing peptide [3]: 100%
% of binding blocked by competing peptide [4]: 100%
% of binding blocked by competing peptide [5]: 100%
% of binding blocked by competing peptide (human α-CGRP 1-36-COOH): ~40%

B2
binding result (antibody G1 Fab fragment): no binding (tested: 10 uM)

B3
binding result (antibody G1 Fab fragment): no binding (tested: 10 uM)

B4
% Binding blocked (antibody G1 Fab fragment): 0.6%
binding result (antibody G1 Fab fragment): no binding (tested: 10 uM)

B5
binding result (antibody G1 Fab fragment): no binding (tested: 10 uM)

B6
binding result (antibody G1 Fab fragment): no binding (tested: 10 uM)

B7
binding result (antibody G1 Fab fragment): no binding (tested: 10 uM)
